Test results as given in patent US7067277B1, “Chimeric G proteins and uses thereof” (H. Lundbeck A/S, priority 1999, dated 2006).

T1: h 5HT1F (Homo sapiens, UniProt P30939)
T1 sequence (P30939 1-366): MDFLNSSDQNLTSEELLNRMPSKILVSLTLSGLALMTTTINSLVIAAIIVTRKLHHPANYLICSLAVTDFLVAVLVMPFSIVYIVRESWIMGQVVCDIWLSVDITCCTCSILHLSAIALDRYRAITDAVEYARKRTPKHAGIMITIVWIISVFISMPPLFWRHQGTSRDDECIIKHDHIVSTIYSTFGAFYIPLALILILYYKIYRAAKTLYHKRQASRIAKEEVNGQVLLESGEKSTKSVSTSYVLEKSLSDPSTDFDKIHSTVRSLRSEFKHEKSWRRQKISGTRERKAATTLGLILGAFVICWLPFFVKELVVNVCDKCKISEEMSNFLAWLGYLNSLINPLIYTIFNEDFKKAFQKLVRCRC

T2: h Y1 (Homo sapiens, UniProt P25929)
T2 construct: expressed in transfected cells; host or cells: COS-7
T2 sequence (P25929 1-384): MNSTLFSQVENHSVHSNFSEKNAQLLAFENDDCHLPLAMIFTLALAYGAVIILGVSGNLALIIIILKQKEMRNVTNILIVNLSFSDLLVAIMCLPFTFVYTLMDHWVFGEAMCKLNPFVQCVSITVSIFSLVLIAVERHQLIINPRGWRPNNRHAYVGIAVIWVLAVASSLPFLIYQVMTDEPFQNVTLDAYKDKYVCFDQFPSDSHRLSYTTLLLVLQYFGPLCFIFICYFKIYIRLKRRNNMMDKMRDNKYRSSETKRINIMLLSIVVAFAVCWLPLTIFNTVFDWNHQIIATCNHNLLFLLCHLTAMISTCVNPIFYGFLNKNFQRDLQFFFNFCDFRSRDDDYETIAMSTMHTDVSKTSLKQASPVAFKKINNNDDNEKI

T3: h Y2 (Homo sapiens, UniProt P49146)
T3 construct: expressed in transfected cells; host or cells: COS-7
T3 sequence (P49146 1-381): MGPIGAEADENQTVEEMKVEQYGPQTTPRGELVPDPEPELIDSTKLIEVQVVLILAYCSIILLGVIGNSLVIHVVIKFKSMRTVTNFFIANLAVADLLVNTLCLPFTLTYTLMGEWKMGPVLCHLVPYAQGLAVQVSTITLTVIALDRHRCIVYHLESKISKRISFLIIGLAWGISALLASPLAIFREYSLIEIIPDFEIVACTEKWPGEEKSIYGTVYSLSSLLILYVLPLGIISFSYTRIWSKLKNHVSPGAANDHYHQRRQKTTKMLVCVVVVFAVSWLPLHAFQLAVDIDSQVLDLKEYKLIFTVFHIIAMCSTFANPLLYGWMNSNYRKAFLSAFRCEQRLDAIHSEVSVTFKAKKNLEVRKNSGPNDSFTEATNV

T4: h Y5 (Homo sapiens, UniProt Q15761)
T4 construct: expressed in transfected cells; host or cells: COS-7
T4 sequence (Q15761 1-445): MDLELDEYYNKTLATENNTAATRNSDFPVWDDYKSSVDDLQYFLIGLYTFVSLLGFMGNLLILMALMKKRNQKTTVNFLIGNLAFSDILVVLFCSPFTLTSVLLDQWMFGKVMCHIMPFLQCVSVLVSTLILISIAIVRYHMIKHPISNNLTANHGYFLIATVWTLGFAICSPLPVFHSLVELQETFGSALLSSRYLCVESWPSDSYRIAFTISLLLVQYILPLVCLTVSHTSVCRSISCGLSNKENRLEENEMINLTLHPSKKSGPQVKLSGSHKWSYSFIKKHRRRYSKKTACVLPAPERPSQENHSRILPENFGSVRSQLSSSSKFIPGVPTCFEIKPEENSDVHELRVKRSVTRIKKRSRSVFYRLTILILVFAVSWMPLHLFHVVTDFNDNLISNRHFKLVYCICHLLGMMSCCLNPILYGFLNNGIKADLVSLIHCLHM

B1: cGαq/z5: chimeric Gα subunit: C-terminal final 5 amino acids of C. elegans Gαq replaced with those of hGαz (SEQ ID NO: 1) (protein)
chain: MACCLSEEAREQKRINQEIEKQLQRDKRNARRELKLLLLGTGESGKSTFIKQMRIIHGQGYSEEDKRAHIRLVYQNVFMAIQSMIRAMDTLDIKFGNESEELQEKAAVVREVDFESVTSFEEPYVSYIKELWEDSGIQECYDRRREYQLTDSAKYYLSDLRRLAVPDYLPTEQDILRVRVPTTGIIEYPFDLEQIIFRMVDVGGQRSERRKWIHCFENVTSIMFLVALSEYDQVLVECDNENRMEESKALFRTIITYPWFTNSSVILFLNKKDLLEEKILYSHLADYFPEYDGPPRDPIAAREFILKMFVDLNPDADKIIYSHFTCATDTENIRFVFAAVKDTILQHNLKYIGLC
modifications: C. elegans
B2: cGαq/z9: C. elegans Gαq with Gαz portion of the C-terminal tail extended to 9 amino acids (SEQ ID NO: 2) (protein)
chain: MACCLSEEAREQKRINQEIEKQLQRDKRNARRELKLLLLGTGESGKSTFIKQMRIIHGQGYSEEDKRAHIRLVYQNVFMAIQSMIRAMDTLDIKFGNESEELQEKAAVVREVDFESVTSFEEPYVSYIKELWEDSGIQECYDRRREYQLTDSAKYYLSDLRRLAVPDYLPTEQDILRVRVPTTGIIEYPFDLEQIIFRMVDVGGQRSERRKWIHCFENVTSIMFLVALSEYDQVLVECDNENRMEESKALFRTIITYPWFTNSSVILFLNKKDLLEEKILYSHLADYFPEYDGPPRDPIAAREFILKMFVDLNPDADKIIYSHFTCATDTENIRFVFAAVKDTILQNNLKYIGLC
modifications: C. elegans

Legend:
Experiment in all cases: Calcium mobilization (FLIPR, Fluo-3) in transfected COS-7 cells
Assay type in all cases: cell-based
h 5HT1E = h 5HT1E (Homo sapiens, UniProt P28566); conditions: h 5HT1E + chimera in COS-7; agonist 5HT, max 100 μM
h 5HT1E, sequence (P28566 whole entry): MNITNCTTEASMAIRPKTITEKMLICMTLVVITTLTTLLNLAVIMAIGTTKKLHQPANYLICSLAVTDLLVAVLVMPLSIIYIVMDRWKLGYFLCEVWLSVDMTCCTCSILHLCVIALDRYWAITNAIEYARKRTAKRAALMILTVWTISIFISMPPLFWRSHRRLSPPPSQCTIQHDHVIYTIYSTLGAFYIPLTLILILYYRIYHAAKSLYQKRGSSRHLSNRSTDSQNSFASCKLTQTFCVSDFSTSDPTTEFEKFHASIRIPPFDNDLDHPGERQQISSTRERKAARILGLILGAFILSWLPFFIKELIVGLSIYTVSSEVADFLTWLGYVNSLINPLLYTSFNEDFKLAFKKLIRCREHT
Method in brief: (§1)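 First, COS-7 cells receive GPCR and chimeric G protein cDNA by DEAE-dextran transfection. Agonist responses are finally recorded by FLIPR for 3 min at room temperature.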

h 5HT1F = biological target: T1, h 5HT1F; conditions: h 5HT1F + chimera in COS-7; agonist 5HT, max 100 μM
Method in brief: as §1

h Y1 = biological target: T2, h Y1; conditions: h Y1 + chimera in COS-7; agonist NPY, max 10 μM
Method in brief: as §1

h Y2 = biological target: T3, h Y2; conditions: h Y2 + chimera in COS-7; agonist NPY, max 10 μM
Method in brief: as §1

h Y5 = biological target: T4, h Y5; conditions: h Y5 + chimera in COS-7; agonist NPY, max 10 μM
Method in brief: as §1

h kappa = biological target: T5, h kappa (Homo sapiens, UniProt P41145); conditions: h kappa + chimera in COS-7; agonist U-69593, max 100 μM
T5 construct: expressed in transfected cells; host or cells: COS-7
T5 sequence (P41145 whole entry): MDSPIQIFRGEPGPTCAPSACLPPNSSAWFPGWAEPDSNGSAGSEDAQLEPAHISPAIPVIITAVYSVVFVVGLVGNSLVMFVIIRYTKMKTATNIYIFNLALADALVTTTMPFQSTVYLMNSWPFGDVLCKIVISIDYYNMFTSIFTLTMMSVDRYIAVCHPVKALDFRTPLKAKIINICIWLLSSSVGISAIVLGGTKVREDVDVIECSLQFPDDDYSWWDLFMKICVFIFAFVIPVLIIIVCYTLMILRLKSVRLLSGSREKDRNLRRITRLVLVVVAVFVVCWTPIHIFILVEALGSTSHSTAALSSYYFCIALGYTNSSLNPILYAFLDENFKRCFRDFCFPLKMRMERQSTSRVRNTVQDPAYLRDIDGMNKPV
Method in brief: as §1

Molecule | MAXIMAL SIGNAL (FLUORESCENCE UNITS) (h 5HT1E) [fluorescence units] | MAXIMAL SIGNAL (FLUORESCENCE UNITS) (h 5HT1F) [fluorescence units] | MAXIMAL SIGNAL (FLUORESCENCE UNITS) (h Y1) [fluorescence units] | MAXIMAL SIGNAL (FLUORESCENCE UNITS) (h Y2) [fluorescence units] | MAXIMAL SIGNAL (FLUORESCENCE UNITS) (h Y5) [fluorescence units] | MAXIMAL SIGNAL (FLUORESCENCE UNITS) (h kappa) [fluorescence units]
B1 | 229 | 243 | 7722 | 7708 | 5314 | 5975
B2 | 238 | 384 | 6728 | 5387 | 6680 | 3472
